Positions count from the first letter of the chain named. Each block holds one binder with its values, some of them ahead of it.
Columns and labels:
human RANK-L [1] = molecular target: T1, human RANK-L (human, UniProt O14788 140-317, limits assumed); assay: AlphaScreen, biotin-hRANK-L / RANK-huFc beads
T1 construct: Soluble protein, used coated, biotinylated or labelled in ELISA, AlphaScreen, FMAT and Biacore; also called hRANK-L; soluble human RANK-L
T1 sequence (looked up): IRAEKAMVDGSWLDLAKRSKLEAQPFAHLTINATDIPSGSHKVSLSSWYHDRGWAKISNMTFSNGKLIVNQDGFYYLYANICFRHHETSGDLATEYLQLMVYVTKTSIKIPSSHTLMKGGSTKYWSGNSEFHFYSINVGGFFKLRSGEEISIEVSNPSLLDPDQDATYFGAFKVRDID

human RANK-L [2] = molecular target: T1, human RANK-L; assay: FMAT, ALEXA647-hRANK-L / RANK on HEK293T cells
human RANK-L [3] = molecular target: T1, human RANK-L; assay: AlphaScreen, biotin-hRANK-L / RANK-huFc beads; remark: listed apart in the source
human RANK-L [4] = molecular target: T1, human RANK-L; assay: SPR Biacore 3000, hRANK-L on CM5, 100 nM Nanobody
Description: (§1) Binding kinetics of the humanized versions of Nanobodu RANL13 were also analysed by Surface Plasmon Resonance (Biacore 3000). […] Nanobody binding was assessed at one concentration (100 nM). Each Nanobody was injected for 4 minutes at a flow rate of 45 μl/min to allow binding to chip-bound antigen. Next, binding buffer without Nanobody was sent over the chip at the same flow rate to allow spontaneous dissociation of bound Nanobody.

human RANK-L [5] = molecular target: T1, human RANK-L; assay: SPR Biacore 3000, hRANK-L on CM5, 100 nM Nanobody; only indicative (one concentration)
Description: as §1

B3: RANKL18hum6Bi_25 (VHH)
chain: EVQLVESGGGLVQPGGSLRLSCAASGRTFSRSAMGWFRQAPGKGREFVGFITGSGGTTYYADSVKGRFTISRDNAQNPVYLQMNSLRPEDTAVYYCAVYRRTYISSTYSESSEYDYWGQGTLVTVSSGGGGSGGGGSGGGGSGGGGSGGGGSEVQLVESGGGLVQPGGSLRLSCAASGRTFSRSAMGWFRQAPGKGREFVGFITGSGGTTYYADSVKGRFTISRDNAQNPVYLQMNSLRPEDTAVYYCAVYRRTYISSTYSESSEYDYWGQGTLVTVSS
notes: Bivalent humanized Nanobody; also called RANKL18Hum6-25GS-RANKL18Hum6
- IC50 (human RANK-L [1]): 0.1 nM
- IC50 (human RANK-L [2]): 0.038 nM

B5: RANKL91biv (VHH)
chain: EVQLVESGGGLVQAGGSLRLTCAASGRTFRSYAMGWFRQAPGKEREFVAAINYSGGSTNYADSVKGRFTISRDNAKNTLYLQMNSLEPEDTAVYYCAAGSGYASLSYYSTERAYTYWGQGTQVTVSSGGGGSGGGSEVQLVESGGGLVQAGGSLRLTCAASGRTFRSYAMGWFRQAPGKEREFVAAINYSGGSTNYADSVKGRFTISRDNAKNTLYLQMNSLEPEDTAVYYCAAGSGYASLSYYSTERAYTYWGQGTQVTVSS
notes: Bivalent Nanobody; also called RANKL9-9GS-RANKL9
- IC50 (human RANK-L [1]): 0.153 nM
- IC50 (human RANK-L [2]): 0.09 nM

B10: RANKL18hum1 (VHH, name in Kabat numbering)
VHH: EVQLVESGGGLVQPGGSLRLSCAASGFTFSRSAMGWFRQAPGKGREFVGFITGSGGTTYYGESVKGRFTISRDNAQNPVYLQMNSLRPEDTAVYYCGVYRRTYISSTYSESSEYDYWGQGTLVTVSS
- IC50 (human RANK-L [3]): 3.15 nM
- koff (human RANK-L [4]): 0.000236 s⁻¹
- Kd (human RANK-L [5]): 1.56 nM
- kon (human RANK-L [5]): 151000 M⁻¹ s⁻¹

B11: RANKL18hum2 (VHH, name in Kabat numbering)
VHH: B10 VHH with F27R, G49S
- IC50 (human RANK-L [3]): 3.19 nM
- koff (human RANK-L [4]): 0.000173 s⁻¹
- Kd (human RANK-L [5]): 2.73 nM
- kon (human RANK-L [5]): 63400 M⁻¹ s⁻¹

B12: RANKL18hum7 (VHH)
VHH: B10 VHH with F27R, G61A, E62D, V79L, G97A
- IC50 (human RANK-L [3]): 0.572 nM
- koff (human RANK-L [4]): 0.00027 s⁻¹
- Kd (human RANK-L [5]): 1.5 nM

B13: RANKL18hum5 (VHH)
VHH: B10 VHH with F27R, G97A
- IC50 (human RANK-L [3]): 0.253 nM
- koff (human RANK-L [4]): 9.94e-05 s⁻¹
- Kd (human RANK-L [5]): 0.232 nM
- kon (human RANK-L [5]): 429000 M⁻¹ s⁻¹

B14: RANKL18hum6Bi_30 (VHH)
chain: EVQLVESGGGLVQPGGSLRLSCAASGRTFSRSAMGWFRQAPGKGREFVGFITGSGGTTYYADSVKGRFTISRDNAQNPVYLQMNSLRPEDTAVYYCAVYRRTYISSTYSESSEYDYWGQGTLVTVSSGGGGSGGGGSGGGGSGGGGSGGGGSGGGGSEVQLVESGGGLVQPGGSLRLSCAASGRTFSRSAMGWFRQAPGKGREFVGFITGSGGTTYYADSVKGRFTISRDNAQNPVYLQMNSLRPEDTAVYYCAVYRRTYISSTYSESSEYDYWGQGTLVTVSS
notes: Bivalent humanized Nanobody; also called RANKL18Hum6-30GS-RANKL18Hum6
- IC50 (human RANK-L [1]): 0.05 nM
- IC50 (human RANK-L [2]): 0.038 nM

Second part, the binder after the results:

- IC50 (human RANK-L [1]): 0.089 nM
- IC50 (human RANK-L [2]): 0.076 nM
B1: RANKL182biv (VHH)
chain: EVQLVESGGGLVQAGGSLRLSCAASGRTFSRSAMGWFRQAPGKEREFVGFITGSGGTTYYGESVKGRFTISRDNAQNPVYLQMNSLKPEDTAVYYCGVYRRTYISSTYSESSEYDYWGQGTQVTVSSGGGGSGGGGSGGGGSGGGGSEVQLVESGGGLVQAGGSLRLSCAASGRTFSRSAMGWFRQAPGKEREFVGFITGSGGTTYYGESVKGRFTISRDNAQNPVYLQMNSLKPEDTAVYYCGVYRRTYISSTYSESSEYDYWGQGTQVTVSS
notes: Bivalent Nanobody; also called RANKL18-20GS-RANKL18

- IC50 (human RANK-L [1]): 0.072 nM
- IC50 (human RANK-L [2]): 0.03 nM
B2: RANKL94biv (VHH)
chain: EVQLVESGGGLVQAGGSLRLTCAASGRTFRSYAMGWFRQAPGKEREFVAAINYSGGSTNYADSVKGRFTISRDNAKNTLYLQMNSLEPEDTAVYYCAAGSGYASLSYYSTERAYTYWGQGTQVTVSSGGGGSGGGGSGGGGSEVQLVESGGGLVQAGGSLRLTCAASGRTFRSYAMGWFRQAPGKEREFVAAINYSGGSTNYADSVKGRFTISRDNAKNTLYLQMNSLEPEDTAVYYCAAGSGYASLSYYSTERAYTYWGQGTQVTVSS
notes: Bivalent Nanobody; also called RANKL9-15GS-RANKL9

- IC50 (human RANK-L [1]): 0.019 nM
- IC50 (human RANK-L [2]): 0.023 nM
B4: RANKL131 (VHH)
chain: EVQLVESGGGLVQAGGSLRLSCAASGRTFRSYPMGWFRQAPGKEREFVASITGSGGSTYYADSVKGRFTISRDNAKNTVYLQMNSLRPEDTAVYSCAAYIRPDTYLSRDYRKYDYWGQGTQVTVSSGGGGSGGGSEVQLVESGGGLVQAGGSLRLSCAASGRTFRSYPMGWFRQAPGKEREFVASITGSGGSTYYADSVKGRFTISRDNAKNTVYLQMNSLRPEDTAVYSCAAYIRPDTYLSRDYRKYDYWGQGTQVTVSS
notes: Bivalent Nanobody; also called RANKL13-9GS-RANKL13

- IC50 (human RANK-L [1]): 0.049 nM
- IC50 (human RANK-L [2]): 0.052 nM
B6: RANKL183biv (VHH)
chain: EVQLVESGGGLVQAGGSLRLSCAASGRTFSRSAMGWFRQAPGKEREFVGFITGSGGTTYYGESVKGRFTISRDNAQNPVYLQMNSLKPEDTAVYYCGVYRRTYISSTYSESSEYDYWGQGTQVTVSSGGGGSGGGGSGGGGSGGGGSGGGGSGGGGSEVQLVESGGGLVQAGGSLRLSCAASGRTFSRSAMGWFRQAPGKEREFVGFITGSGGTTYYGESVKGRFTISRDNAQNPVYLQMNSLKPEDTAVYYCGVYRRTYISSTYSESSEYDYWGQGTQVTVSS
notes: Bivalent Nanobody; also called RANKL18-30GS-RANKL18

- IC50 (human RANK-L [1]): 0.07 nM
- IC50 (human RANK-L [2]): 0.032 nM
B7: RANKL92biv (VHH)
chain: EVQLVESGGGLVQAGGSLRLTCAASGRTFRSYAMGWFRQAPGKEREFVAAINYSGGSTNYADSVKGRFTISRDNAKNTLYLQMNSLEPEDTAVYYCAAGSGYASLSYYSTERAYTYWGQGTQVTVSSGGGGSGGGGSGGGGSGGGGSEVQLVESGGGLVQAGGSLRLTCAASGRTFRSYAMGWFRQAPGKEREFVAAINYSGGSTNYADSVKGRFTISRDNAKNTLYLQMNSLEPEDTAVYYCAAGSGYASLSYYSTERAYTYWGQGTQVTVSS
notes: Bivalent Nanobody; also called RANKL9-20GS-RANKL9

- IC50 (human RANK-L [1]): 0.066 nM
- IC50 (human RANK-L [2]): 0.048 nM
B8: RANKL93biv (VHH)
chain: EVQLVESGGGLVQAGGSLRLTCAASGRTFRSYAMGWFRQAPGKEREFVAAINYSGGSTNYADSVKGRFTISRDNAKNTLYLQMNSLEPEDTAVYYCAAGSGYASLSYYSTERAYTYWGQGTQVTVSSGGGGSGGGGSGGGGSGGGGSGGGGSGGGGSEVQLVESGGGLVQAGGSLRLTCAASGRTFRSYAMGWFRQAPGKEREFVAAINYSGGSTNYADSVKGRFTISRDNAKNTLYLQMNSLEPEDTAVYYCAAGSGYASLSYYSTERAYTYWGQGTQVTVSS
notes: Bivalent Nanobody; also called RANKL9-30GS-RANKL9

- IC50 (human RANK-L [1]): 0.113 nM
- IC50 (human RANK-L [2]): 0.134 nM
B9: RANKL181biv (VHH)
chain: EVQLVESGGGLVQAGGSLRLSCAASGRTFSRSAMGWFRQAPGKEREFVGFITGSGGTTYYGESVKGRFTISRDNAQNPVYLQMNSLKPEDTAVYYCGVYRRTYISSTYSESSEYDYWGQGTQVTVSSGGGGSGGGSEVQLVESGGGLVQAGGSLRLSCAASGRTFSRSAMGWFRQAPGKEREFVGFITGSGGTTYYGESVKGRFTISRDNAQNPVYLQMNSLKPEDTAVYYCGVYRRTYISSTYSESSEYDYWGQGTQVTVSS
notes: Bivalent Nanobody; also called RANKL18-9GS-RANKL18

Reference: US20110002929A1 (Ablynx, published 2011)
